From patent publication US20200155571A1, “Topically Active Steroids for Use in Radiation and Chemotherapeutics Injury” (Soligenix, Inc., priority 2008, published 2020)

Legend:
[1] = cited from earlier work
[2] = 17-BMP after BDP administration, estimated; cited from earlier work
[3] = rats, cited from earlier work
glucocorticoid receptor = biological target: T1, glucocorticoid receptor (Homo sapiens, UniProt P04150); settings: as fraction of the binding affinity of dexamethasone; cited from earlier work
T1 sequence (P04150 1-777): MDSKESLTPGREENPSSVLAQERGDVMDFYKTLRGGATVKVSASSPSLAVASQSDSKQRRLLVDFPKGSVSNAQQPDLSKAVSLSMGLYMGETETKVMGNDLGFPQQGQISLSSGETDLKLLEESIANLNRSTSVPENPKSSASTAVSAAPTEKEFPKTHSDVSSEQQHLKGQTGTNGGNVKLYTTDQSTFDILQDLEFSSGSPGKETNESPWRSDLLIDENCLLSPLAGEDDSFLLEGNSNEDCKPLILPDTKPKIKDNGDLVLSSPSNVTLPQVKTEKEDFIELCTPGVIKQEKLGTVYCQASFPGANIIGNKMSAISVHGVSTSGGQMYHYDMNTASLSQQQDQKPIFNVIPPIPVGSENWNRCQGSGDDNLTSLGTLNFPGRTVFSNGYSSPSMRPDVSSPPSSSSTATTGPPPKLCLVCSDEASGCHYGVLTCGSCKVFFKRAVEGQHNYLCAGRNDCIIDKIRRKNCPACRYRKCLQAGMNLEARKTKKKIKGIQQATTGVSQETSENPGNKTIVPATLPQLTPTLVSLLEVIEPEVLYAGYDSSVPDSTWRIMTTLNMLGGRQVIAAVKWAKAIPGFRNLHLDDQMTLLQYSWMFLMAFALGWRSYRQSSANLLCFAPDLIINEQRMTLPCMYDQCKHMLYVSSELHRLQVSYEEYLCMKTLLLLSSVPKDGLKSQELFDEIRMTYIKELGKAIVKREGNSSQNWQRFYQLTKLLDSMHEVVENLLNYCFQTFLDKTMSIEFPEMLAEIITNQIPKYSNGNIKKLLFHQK

[4] = system: dogs given high dose total body irradiation (TBI); test: Survival of dogs after high dose TBI (GI radiation syndrome) with autologous marrow and supportive care; type: in vivo, dog; settings: TBI dose giving >80% lethality; monitored up to 30 days; KGF 100 μg/kg/day iv or BDP 4 mg/day from 2 hours after TBI until GI recovery
Excerpt: The dog is a particularly suitable animal model for studying radiations damage to epithelial tissue. […] To evaluate the response to TBI given at the high dose rate of 0.4 Gy/min or 0.7 Gy/min, treatment groups were given single-fraction 6, 7, 8 or 10 Gy TBI and received previously cryopreserved autologous marrow infusion upon completion of the TBI and standard supportive care. At doses of TBI below 8 Gy, all dogs survived. After 8 Gy TBI, 5 of 9 dogs died and after 10 Gy TBI, 9 of 9 dogs died from GI radiation syndrome. All deaths occurred between days 4 to day 6 after 10 Gy TBI. All deaths were attributable due to GI radiation toxicity with severe gut hemorrhage and intestinal crypt damage, as well as denudation of gut epithelium and focal necrosis in the intestines. Despite antibiotic treatment, blood cultures obtained near the time of death were positive for gram negative organisms in 4 dogs, consistent with entry of pathogens through the GI tract. […]
Dogs were monitored for survival up to 30 days after initiation of TBI (primary endpoint of the experiment). […] Dogs were also followed with daily CBCs until recovery and assessed for immune function recovery. […]

[5] = system: dogs given total body irradiation (TBI); test: Survival and hematopoietic recovery of dogs after TBI with cytokine treatment; type: in vivo, dog
Experimental: Supportive care consisted of the following: (a) intravenous antibiotics, ampicillin and amikacin and oral nonreabsorbable polymixin/neomycin administered without change in drug regimen until recovery of absolute neutrophil count (ANC)>1000/μL; (b) transfusions with irradiated whole blood (50 mL blood per transfusion) for platelet counts below 10,000/μL; and (c) subcutaneous fluids 20 ml/kg given daily for the first 5 days after TBI.
After TBI exposure, all dogs were treated with an oral fluoroquinolone, enrofloxacin. Core body temperature was measured at least twice daily. If fever developed or when ANC falls below <100/μL, dogs are empirically treated with the combination of intravenous third-generation cephalosporin (ceftazidime) and the aminoglycoside amikacin. Blood cultures are obtained when dogs develop fever and antibiotic treatment is adjusted based on blood culture results. If blood culture negative neutropenic fever persists for 48 hours, or if clinical condition objectively worsens, additional empiric antibiotic treatment with metronidazole and vancomycin is added. Although the new antibiotic regimen is more complicated compared with the historical treatment, it reflects improved broad spectrum coverage against gram negative, gram positive and anaerobic pathogens. Furthermore, blood transfusion support is more intensive now with larger volume of whole blood transfusion, based on body weight with 10-15 mL blood/kg/transfusion. The use of intravenous fluid support (10-30 mL/kg/day Lactated Ringers solution) is extended for at least 14 additional days until there is full recovery of oral food intake.
New supportive care measures have shown a significant improvement in survival after TBI. Following 4 Gy TBI (0.07 Gy/min, Varian Clinac 4/80 linear accelerator source), 4 of 4 dogs survived and recovered hematopoiesis with a median time to ANC and platelet recovery of 27 and 41 days, respectively. ANC recovery was defined as the first day of sustained neutrophil counts >500/μL and platelet recovery was defined as the first day of transfusion-independent sustained recovery of >40,000/μL. After 5 Gy TBI, 3 of 6 dogs survived with supportive care only. Deaths occurred at days 14, 15 and 21, respectively, after TBI and were due to neutropenic sepsis or pneumonia and not from the GI radiation syndrome. Among surviving dogs, the median time to ANC and platelet recovery was 29 and 44 days, respectively. After 6 Gy TBI, 5 of 6 dogs survived given supportive care only. One death occurred on day 22 due to neutropenic sepsis. The median time to ANC and platelet recovery was 34 and 74 days, respectively. After 7 Gy TBI and supportive care only, 5 of 6 dogs survived, with one death on day 22 due to neutropenic sepsis. […] As of Apr. 18, 2007, the remaining three dogs in this cohort remain transfusion-dependent at 66 to 95 days after TBI. […] Because of the improved survival of dogs after TBI given optimal supportive care in the current AI-066498 studies, we have not yet reached the 99% lethal dose of TBI threshold.
Although supportive care without cytokine support results in improved survival, cytokine treatment given after TBI aimed at recovery of the hematopoietic system also improves outcome and decreased the need for prolonged, intensive (and expensive) supportive care. Historical results in the dog model by our research group included studies which established that both recombinant canine (rc) and recombinant human (rh) G-CSF given after an otherwise lethal dose of 4 Gy TBI prevented death from radiation induced cytopenia. In the 1980's and early 1990's, after 4 Gy TBI and supportive care alone, only 1 of 28 dogs survived with recovery of hematopoiesis. In contrast, when G-CSF was given daily for 21 days after 4 Gy TBI, 8 of 10 dogs survived. […] These studies helped to establish the current clinical guidelines for the treatment of victims of radiation accidents. […]

[6] = system: oral mucositis after high-dose radiation; settings: cited from earlier work
non-irradiated dogs = test: rhKGF in non-irradiated dogs, necropsy of gut; type: in vivo, dog; settings: rhKGF 100 μg/kg/day for 14 and 21 days
Experimental: Three non-irradiated dogs were given rhKGF 100 μg/kg/day for 7, 14 and 21 days, respectively. Twenty-four hours after the last dose of KGF, dogs were euthanized and underwent complete necropsy.

In the case of CCC(=O)O[C@]1(C(=O)CO)[C@@H](C)C[C@H]2[C@@H]3CCC4=CC(=O)C=C[C@]4(C)[C@@]3(Cl)[C@@H](O)C[C@@]21C [17-BMP, 17-beclomethasone mono-propionate], the “half-life in simulated intestinal fluid” value [1] is listed as 720 min, the absolute oral bioavailability [2] is listed as 21-41% and the “presence in plasma following oral administration of 3H-BDP” value [3] is listed as “found in the plasma”.

For CCC(=O)OCC(=O)[C@@]1(O)[C@@H](C)C[C@H]2[C@@H]3CCC4=CC(=O)C=C[C@]4(C)[C@@]3(Cl)[C@@H](O)C[C@@]21C [21-BMP], the “glucocorticoid receptor binding affinity, in words” value (glucocorticoid receptor) is listed as “no apparent affinity”.

In the case of beclomethasone 17,21-dipropionate [BDP], the “half-life in simulated intestinal fluid” value [1] is given as 2.1 min, the “survival after TBI” value [4] is given as “greater than 70%” and the “half-life of unchanged BDP in plasma” value ([3]; intravenous administration of 3H-BDP) is given as 3 to 4 min. The “presence in plasma following oral administration of 3H-BDP” value [3] was “not detected”.

B1: G-CSF: cytokine granulocyte colony stimulating factor, recombinant canine or human (protein, UniProt P09919 31-207, looked up)
Granulocyte …: TPLGPASSLPQSFLLKCLEQVRKIQGDGAALQEKLVSECATYKLCHPEELVLLGHSLGIPWAPLSSCPSQALQLAGCLSQLHSGLFLYQGLLQALEGISPELGPTLDTLQLDVADFATTIWQQMEELGMAPALQPTQGAMPAFASAFQRRAGGVLVASHLQSFLEVSYRVLRHLAQP
For B1, the survival ([5]; 4 Gy TBI, G-CSF daily for 21 days, historical results, supportive care alone 1 of 28) was 8 of 10, the survival ([5]; 5 Gy TBI, 10 μg/kg/day starting 2 hours after irradiation, new supportive care) was 6 of 6 and the survival ([5]; 5 Gy TBI, G-CSF, historical results) was 3 of 10. The “median time to ANC recovery” value ([5]; 5 Gy TBI, ANC >500/μL) was 20 days, the “median time to platelet recovery” value ([5]; 5 Gy TBI, platelets >40,000/μL) was 44 days and the “median time to ANC recovery” value ([5]; 6 Gy TBI) was 26 days. For the same molecule, the “median time to platelet recovery” value ([5]; 6 Gy TBI) was 61 days and the survival ([5]; 6 Gy TBI, G-CSF 10 μg/kg/day, FL 100 μg/kg/day) was 5 of 6.

B2: KGF: keratinocyte growth factor, recombinant human; binds the KGF receptor on epithelial tissues (protein, UniProt P21781 32-194, looked up)
Fibroblast growth factor 7: CNDMTPEQMATNVNCSSPERHTRSYDYMEGGDIRVRRLFCRTQWYLRIDKRGKVKGTQEMKNNYNIMEIRTVAVGIVAIKGVESEFYLAMNKEGKLYAKKECNEDCNFKELILENHYNTYASAKWTHNGGEMFVALNQKGIPVRGKKTKKEQKTAHFLPMAIT
For B2, the duration of mucositis ([6]; rhKGF 60 μg/kg/day for 3 days prior to 12 Gy fractionated TBI and 3 days after autologous PBSC infusion, placebo 10.4 days, p<0.001) is given as 3.4 days, the “incidence of febrile neutropenia” value ([6]; same trial, placebo 46%) is given as 26% and the “mean days of febrile neutropenia” value ([6]; same trial, placebo 4.6 days) is given as 2.6 days. For the same molecule, the “survival after TBI” value [4] was ≥ 70%, the “effect on Peyer's patches in the ileum” value (non-irradiated dogs) was “dramatic increase in the size and cellularity of Peyer's patches” and the “effect on villi in the jejunum” value (non-irradiated dogs) was “dramatic increase in size of villi”.
